Data from patent publication US20260035426.

recombinant human MMP9, sequence (chain, as listed by the source): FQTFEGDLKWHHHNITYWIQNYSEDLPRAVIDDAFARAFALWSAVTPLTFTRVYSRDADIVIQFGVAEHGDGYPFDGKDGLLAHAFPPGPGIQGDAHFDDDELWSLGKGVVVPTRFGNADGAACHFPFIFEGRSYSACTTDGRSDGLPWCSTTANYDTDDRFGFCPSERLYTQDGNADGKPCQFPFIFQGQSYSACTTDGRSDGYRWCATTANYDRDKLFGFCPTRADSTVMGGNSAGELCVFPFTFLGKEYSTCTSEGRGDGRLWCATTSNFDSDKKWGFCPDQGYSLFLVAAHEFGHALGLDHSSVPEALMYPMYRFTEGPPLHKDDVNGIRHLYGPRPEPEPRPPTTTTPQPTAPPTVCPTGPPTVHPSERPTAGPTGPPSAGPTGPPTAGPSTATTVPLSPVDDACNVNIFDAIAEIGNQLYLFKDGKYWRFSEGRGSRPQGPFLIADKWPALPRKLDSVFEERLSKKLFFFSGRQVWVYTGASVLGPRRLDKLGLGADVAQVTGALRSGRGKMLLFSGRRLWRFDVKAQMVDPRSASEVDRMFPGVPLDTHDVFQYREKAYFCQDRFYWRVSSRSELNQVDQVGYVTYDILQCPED
SB1902-C4, sequence (chain, as listed by the source, chain 1 of 2): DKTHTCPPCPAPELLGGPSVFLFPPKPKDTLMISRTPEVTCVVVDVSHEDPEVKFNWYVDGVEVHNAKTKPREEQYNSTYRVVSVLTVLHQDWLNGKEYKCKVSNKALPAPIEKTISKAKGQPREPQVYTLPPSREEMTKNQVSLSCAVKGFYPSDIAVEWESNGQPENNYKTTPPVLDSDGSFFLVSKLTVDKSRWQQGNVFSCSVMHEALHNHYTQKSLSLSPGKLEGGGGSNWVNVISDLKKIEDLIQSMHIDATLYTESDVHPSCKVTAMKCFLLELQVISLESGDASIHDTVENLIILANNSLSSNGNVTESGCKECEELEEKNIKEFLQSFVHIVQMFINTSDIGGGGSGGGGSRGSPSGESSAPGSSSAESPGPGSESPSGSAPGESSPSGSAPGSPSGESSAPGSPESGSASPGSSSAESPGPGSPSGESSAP
SB1902-C4, sequence (chain, as listed by the source, chain 2 of 2): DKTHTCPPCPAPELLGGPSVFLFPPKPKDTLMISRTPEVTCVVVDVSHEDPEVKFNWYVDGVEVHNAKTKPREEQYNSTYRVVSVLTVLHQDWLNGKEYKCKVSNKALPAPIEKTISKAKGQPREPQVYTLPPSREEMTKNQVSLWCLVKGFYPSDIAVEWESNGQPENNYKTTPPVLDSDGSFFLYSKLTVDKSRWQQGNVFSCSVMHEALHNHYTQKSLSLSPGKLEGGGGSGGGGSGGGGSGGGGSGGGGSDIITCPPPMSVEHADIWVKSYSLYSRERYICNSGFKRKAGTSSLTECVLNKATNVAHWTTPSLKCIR
SB1902-C5, sequence (chain, as listed by the source, chain 1 of 2): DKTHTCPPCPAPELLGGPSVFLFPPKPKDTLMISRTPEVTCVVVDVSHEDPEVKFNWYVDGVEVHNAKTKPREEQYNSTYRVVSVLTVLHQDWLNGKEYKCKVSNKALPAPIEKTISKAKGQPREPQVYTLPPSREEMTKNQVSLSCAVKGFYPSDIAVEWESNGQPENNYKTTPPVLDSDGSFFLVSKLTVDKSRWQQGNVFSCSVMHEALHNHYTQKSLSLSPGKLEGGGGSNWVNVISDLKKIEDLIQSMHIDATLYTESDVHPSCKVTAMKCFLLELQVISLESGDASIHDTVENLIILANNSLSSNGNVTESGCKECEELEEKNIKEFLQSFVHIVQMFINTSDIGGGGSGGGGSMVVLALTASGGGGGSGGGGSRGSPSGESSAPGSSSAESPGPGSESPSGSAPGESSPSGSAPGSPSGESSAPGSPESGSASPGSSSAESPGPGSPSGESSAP
SB1902-C5, sequence (chain, as listed by the source, chain 2 of 2): as the sequence (chain, as listed by the source, chain 2 of 2) above
SB1902-C2, sequence (chain, as listed by the source, chain 1 of 2): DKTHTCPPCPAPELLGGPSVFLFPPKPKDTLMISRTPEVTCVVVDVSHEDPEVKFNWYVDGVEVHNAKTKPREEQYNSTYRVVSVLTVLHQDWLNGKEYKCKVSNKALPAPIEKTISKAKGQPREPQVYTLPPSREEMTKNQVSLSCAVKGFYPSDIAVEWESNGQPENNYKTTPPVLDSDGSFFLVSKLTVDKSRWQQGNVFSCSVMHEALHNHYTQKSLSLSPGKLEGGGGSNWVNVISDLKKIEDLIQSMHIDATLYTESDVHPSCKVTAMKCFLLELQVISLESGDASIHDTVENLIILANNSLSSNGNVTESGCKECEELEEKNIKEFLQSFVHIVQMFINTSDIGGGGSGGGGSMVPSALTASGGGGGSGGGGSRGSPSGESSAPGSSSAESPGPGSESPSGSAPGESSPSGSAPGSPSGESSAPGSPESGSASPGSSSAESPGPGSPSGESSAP
SB1902-C2, sequence (chain, as listed by the source, chain 2 of 2): as the sequence (chain, as listed by the source, chain 2 of 2) above

How did the “in vitro protease digestion (data not shown)” value (CM10) turn out when recombinant human MMP9 was run?
Its value is “The other cleavable moieties (such as CM2, CM5-CM10) was also cleavable in vitro by both MMP2 and MMP9 (data not shown)”.

What about the “in vitro protease digestion (data not shown)” value (CM2) of the same substance?
Its value is “The other cleavable moieties (such as CM2, CM5-CM10) was also cleavable in vitro by both MMP2 and MMP9 (data not shown)”.

And the “in vitro protease digestion (data not shown)” value (CM5)?
Its value is “The other cleavable moieties (such as CM2, CM5-CM10) was also cleavable in vitro by both MMP2 and MMP9 (data not shown)”.

And the “in vitro protease digestion (data not shown)” value (CM6)?
Its value is “The other cleavable moieties (such as CM2, CM5-CM10) was also cleavable in vitro by both MMP2 and MMP9 (data not shown)”.

And the “in vitro protease digestion (data not shown)” value (CM7)?
Its value is “The other cleavable moieties (such as CM2, CM5-CM10) was also cleavable in vitro by both MMP2 and MMP9 (data not shown)”.

What about the “in vitro protease digestion (data not shown)” value (CM8) of the same substance?
The value was “The other cleavable moieties (such as CM2, CM5-CM10) was also cleavable in vitro by both MMP2 and MMP9 (data not shown)”.

And the “in vitro protease digestion (data not shown)” value (CM9)?
Its value is “The other cleavable moieties (such as CM2, CM5-CM10) was also cleavable in vitro by both MMP2 and MMP9 (data not shown)”.

And the “in vitro protease digestion, polyacrylamide gel” value (SB1902-C2)?
The value was “The mutated substrate CM1 was cleavable in vitro by both MMP2 and MMP9 enzymes, with an enzyme dose-dependent manner”.

What about the “in vitro protease digestion, polyacrylamide gel” value (SB1902-C4) of the same substance?
Its value is “the non-cleavable G4S linker in SB1902-C4 was resistant to both MMP2 and MMP9 enzyme digestion”.

What about the “in vitro protease digestion, polyacrylamide gel” value (SB1902-C5) of the same substance?
The value was “The mutated substrate CM4 was cleavable in vitro by both MMP2 and MMP9 enzymes, with an enzyme dose-dependent manner”.
